Laboratory results reported in patent US20240294635A1 (CHIA TAI TIANQING PHARMACEUTICAL GROUP, published 2024).
Substitutions are numbered along the chain they refer to. Names may count otherwise.

B1: Xi2B2 (antibody, human IgG4 S228P, kappa, V domains shown)
VH: EVMLVESGGGLVQPGGSLKLSCAASGFTFSNYYMSWVRQTPEKRLEWVAYISSGGGSTYYPDSVKGRFTISRDNAKNTLYLQMSSLKSEDTAMYYCAWFAYWGQGTLVTVSA
VL: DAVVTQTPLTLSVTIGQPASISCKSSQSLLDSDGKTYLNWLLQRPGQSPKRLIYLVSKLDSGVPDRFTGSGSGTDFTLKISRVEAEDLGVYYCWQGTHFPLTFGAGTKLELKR
notes: mouse variable regions on human IgG4 (EU S228P) and human kappa constant regions; also called chimeric 2B2 antibody
B2: Xi14A9 (antibody, human IgG4 S228P, kappa, V domains shown)
VH: EVQLQQSGAEVARPGASVKLSCTVSGFNIEDDYIEWVKQRPEQGLEWIGRIDPANDKTKYAPKFQDKATITGDTSSNTAYLQLSSLTSEDTAVYYCTRPGLRRYYSMDYWGQGTSVTVSS
VL: NIVLTQSPKSMSMSVGERVTLSCKASENVVSYVSWYQQKPEQSPKLLIYGASNRYTGVPDRFIGSGSSTDFTLIISSFQPEDLADYHCGQSYSYPLTFGAGTKLELKR
notes: mouse variable regions on human IgG4 (EU S228P) and human kappa constant regions; also called chimeric 14A9 antibody
B3: Xi3F10 (antibody, human IgG4 S228P, kappa, V domains shown)
VH: EVQLQQSVAELMKPGASVKIYCKATGYTFSRYWIEWVKQRPGHGLEWIGEFIPGSDTTNFNEKFKGKATFTAEISSNTAYMQLSSLTSEDSAVYFCARGGLRRMDYWGQGTSVTVSS
VL: DIVMTQTPAIMSASPGEKVTMTCRASSSVSSTYLHWYQQKSGASPKLWIYTTSTLASGVPARFSGSGSGTSYSLTISSVEAEDAATYYCQQFSDSTWTFGGGTKLEIKR
notes: mouse variable regions on human IgG4 (EU S228P) and human kappa constant regions; also called chimeric 3F10 antibody
B4: Xi16E5 (antibody, human IgG4 S228P, kappa, V domains shown)
VH: EVQLQQSGPELKKPGETVKISCKASGYTFTNYGMNWVKQVPGKGLKWMGWINTNTGEPTYAEEFKGRFAFSLETSARTAFLQINNLKNEDTATYFCTRFSHLRGPMDYWGQGASVTVSS
VL: DAVMTQTPLSLPVSLGDQASISCRSSQSLVHSNGYTYLHWYLQKPGQSPKLLIYKVSNRFSGVPDRFSGSGSGTDFTLKISRLEAEDLGVYFCSQSTHVPPTFGGGTKLEIKR
notes: mouse variable regions on human IgG4 (EU S228P) and human kappa constant regions; also called chimeric 16E5 antibody
B5: hz3F10-3.2 (antibody, human IgG4 S228P, kappa, V domains shown)
VH: QVQLVQSGAEVKKPGSSVKVSCKASGYTFSRYWIEWVRQAPGQGLEWMGEFIPGSDTTNYAQKFQGRVTITAEISTNTAYMELSSLRSEDTAVYYCARGGLRRMDYWGQGTLVTVSS
VL: DIQMTQSPSSLSASVGDRVTITCRASSSVSSTYLHWYQQKPGKAPKLLIYTTSTLASGVPSRFSGSGSGTSYTLTISSLQPEDFATYYCQQFSDSTWTFGQGTKLEIKR
notes: humanized 3F10, full-length heavy and light chains
B6: hz3F10-4.1 (antibody, human IgG4 S228P, kappa, V domains shown)
VH: B5 VH with E73D, N77S
VL: B5 VL with D94E
notes: as for B5
B7: hz3F10-4.2 (antibody, human IgG4 S228P, kappa, V domains shown)
VH: B5 VH
VL: B5 VL with D94E
notes: as for B5
B8: hz16E5-1.3 (antibody, human IgG4 S228P, kappa)
heavy: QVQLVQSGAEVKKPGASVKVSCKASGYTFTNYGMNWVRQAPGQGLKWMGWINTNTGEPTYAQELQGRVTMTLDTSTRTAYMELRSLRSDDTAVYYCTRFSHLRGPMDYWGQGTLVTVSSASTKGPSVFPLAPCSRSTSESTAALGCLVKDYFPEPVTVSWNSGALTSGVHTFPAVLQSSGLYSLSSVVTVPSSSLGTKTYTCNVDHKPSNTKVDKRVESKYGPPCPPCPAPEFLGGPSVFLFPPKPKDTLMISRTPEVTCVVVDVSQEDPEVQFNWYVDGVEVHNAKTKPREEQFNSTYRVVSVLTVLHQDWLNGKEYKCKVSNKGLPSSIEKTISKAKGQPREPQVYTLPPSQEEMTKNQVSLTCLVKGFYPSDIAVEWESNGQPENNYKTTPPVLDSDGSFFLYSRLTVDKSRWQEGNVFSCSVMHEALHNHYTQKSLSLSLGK
light: DIQMTQSPSSLSASVGDRVTITCRSSQSLVHSNGYTYLHWYQQKPGKAPKLLIYKVSNRFSGVPSRFSGSGSGTDFTLTISSLQPEDFATYYCSQSTHVPPTFGQGTKLEIKRTVAAPSVFIFPPSDEQLKSGTASVVCLLNNFYPREAKVQWKVDNALQSGNSQESVTEQDSKDSTYSLSSTLTLSKADYEKHKVYACEVTHQGLSSPVTKSFNRGEC
notes: humanized 16E5, full-length heavy and light chains
B9: hz16E5-3.1 (antibody, human IgG4 S228P, kappa)
heavy: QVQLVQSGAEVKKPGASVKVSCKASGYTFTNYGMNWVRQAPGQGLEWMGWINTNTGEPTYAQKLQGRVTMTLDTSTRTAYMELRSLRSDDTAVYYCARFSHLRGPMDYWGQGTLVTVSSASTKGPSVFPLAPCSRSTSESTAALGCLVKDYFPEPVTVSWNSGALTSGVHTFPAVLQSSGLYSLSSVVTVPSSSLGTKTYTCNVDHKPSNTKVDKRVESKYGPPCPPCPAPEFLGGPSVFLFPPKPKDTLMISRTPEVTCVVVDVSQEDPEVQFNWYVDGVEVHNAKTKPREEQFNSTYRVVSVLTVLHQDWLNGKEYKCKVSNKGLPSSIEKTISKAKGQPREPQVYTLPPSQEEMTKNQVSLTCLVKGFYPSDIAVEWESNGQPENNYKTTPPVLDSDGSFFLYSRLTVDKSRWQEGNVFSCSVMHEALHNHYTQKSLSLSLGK
light: B8 light with I2A
notes: as for B8
B10: hz16E5-3.3 (antibody, human IgG4 S228P, kappa)
heavy: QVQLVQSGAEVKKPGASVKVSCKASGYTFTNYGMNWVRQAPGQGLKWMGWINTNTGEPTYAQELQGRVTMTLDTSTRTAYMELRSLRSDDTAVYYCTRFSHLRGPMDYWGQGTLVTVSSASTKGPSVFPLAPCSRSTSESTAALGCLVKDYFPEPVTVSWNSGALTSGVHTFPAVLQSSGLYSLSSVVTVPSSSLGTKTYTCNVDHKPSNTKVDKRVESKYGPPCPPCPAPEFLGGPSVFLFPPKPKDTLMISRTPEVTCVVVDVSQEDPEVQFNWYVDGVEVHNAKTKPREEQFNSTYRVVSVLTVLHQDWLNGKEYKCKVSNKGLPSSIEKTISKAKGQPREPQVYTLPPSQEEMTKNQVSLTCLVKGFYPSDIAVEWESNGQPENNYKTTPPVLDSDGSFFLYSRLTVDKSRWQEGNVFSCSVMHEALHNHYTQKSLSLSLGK
light: B8 light with I2A
notes: as for B8
B11: hz16E5-1.1 (antibody, human IgG4 S228P, kappa)
heavy: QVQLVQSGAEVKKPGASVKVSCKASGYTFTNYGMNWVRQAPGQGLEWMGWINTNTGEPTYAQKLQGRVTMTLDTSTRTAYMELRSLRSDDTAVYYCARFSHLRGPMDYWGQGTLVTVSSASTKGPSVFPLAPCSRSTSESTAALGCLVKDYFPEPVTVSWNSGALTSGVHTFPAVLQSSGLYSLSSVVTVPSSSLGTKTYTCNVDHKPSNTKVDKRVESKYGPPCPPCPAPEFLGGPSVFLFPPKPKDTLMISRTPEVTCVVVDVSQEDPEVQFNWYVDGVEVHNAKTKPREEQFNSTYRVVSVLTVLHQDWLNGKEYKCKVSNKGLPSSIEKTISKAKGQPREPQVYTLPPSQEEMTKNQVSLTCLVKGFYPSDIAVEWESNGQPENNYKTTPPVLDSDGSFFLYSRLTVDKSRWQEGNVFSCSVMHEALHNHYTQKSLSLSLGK
light: B8 light
notes: as for B8

target: T1, CD47 on the red cell surface (Homo sapiens (Human), UniProt Q08722 19-323); assay: flow cytometry on fixed red cells, antibody 10 µg/mL
Experimental: (§1) Anticoagulated blood was collected and well mixed with an equal amount of normal saline. The mixture was centrifuged at 2000 rpm/min for 5 min, and the supernatant was removed. […] In the first two washings, the mixture was centrifuged at 2000 rpm/min for 5 min, and in the last washing, the mixture was centrifuged at 2000 rpm/min for 10 min, and the supernatant was removed.

Row | Binder | MFI [MFI]
1 | B1 | 608
2 | B2 | 32800
3 | B3 | 61800
4 | B4 | 3320

target: T2, human CD47 protein, His Tag (ACRObiosystems, Cat. No. CD7-H5227) (human, UniProt Q08722 19-139); assay: ELISA, CD47-His coated, competition with Human-SIRPα-mFc
T2 construct: bought reagent; also called CD47-His; hCD47-His Tag; not shown: His tag

Row | Binder | IC50 [µg/mL]
5 | B5 | 1.74
6 | B6 | 1.95
7 | B7 | 1.74
8 | B8 | 2.32
9 | B9 | 15.2
10 | B10 | 2

target: T1, CD47 on the red cell surface; assay: cell-based or functional assay

Row | Binder | red cell agglutination, lowest concentration causing it [µg/mL]
11 | B5 | 3.3
12 | B6 | 3.3
13 | B7 | 3.3
14 | B11 | 3.3
15 | B8 | 3.3
16 | B9 | 3.3
17 | B10 | 3.3

target: T3, human CD47 protein on CHO-K1-CD47 cells (human, UniProt Q08722 19-323); assay: cell binding, CHO-K1-CD47 cells, high content imaging
T3 construct: whole, on cells; also called CHO-K1 cells expressing human CD47 protein
Experimental: (§2) A cell binding assay of anti-CD47 antibodies (chimeric or humanized) was performed based on the binding to a CHO-K1 cell line stably expressing CD47. CHO-K1-CD47 cells (CHO-K1 cells expressing human CD47 protein) were added to each well of a 96-well plate (Eppendorf, Cat. No. C030730.119) at 1.2×10⁴ cells per well and incubated with anti-CD47 antibodies (20 μg/mL, 1:4 dilution in PBS) at room temperature for 1-2 h. […] The cells were incubated at room temperature for 30 min. The cells were washed three times with PBS buffer. A nuclear dye Hoechst (Sigma, Cat. No. B2261) was diluted with PBS buffer at a dilution ratio of 1:500 and then added to each well at 100 μL/well for staining for 10 min. The cells were washed 3 times with PBS and analyzed using a high content screening system (manufacturer: PerkinElmer; model: Operetta).

Row | Binder | EC50 [µg/mL]
18 | B1 | 30.8
19 | B2 | 0.541
20 | B3 | 19.8
21 | B4 | 2.03

target: T2, human CD47 protein, His Tag …; assay: Biacore SPR, 25 C, antibody captured on CM5 chip

Row | Binder | Kd [nM]
22 | B5 | 1.15
23 | B6 | 1.42
24 | B7 | 1.34
25 | B11 | 18.9
26 | B8 | 15.3
27 | B9 | 6.28
28 | B10 | 7.13

target: T4, cynomolgus/rhesus macaque CD47 protein, His Tag (ACRObiosystems, Cat. No. CD7-C52H1) (cynomolgus monkey (cynomolgus/rhesus …, UniProt A0A2K5X523 19-141)); assay: Biacore SPR, 25 C, antibody captured on CM5 chip
T4 construct: bought reagent; also called Cynomolgus monkey CD47 protein
T4 sequence (A0A2K5X523 entry or part of it limits assumed): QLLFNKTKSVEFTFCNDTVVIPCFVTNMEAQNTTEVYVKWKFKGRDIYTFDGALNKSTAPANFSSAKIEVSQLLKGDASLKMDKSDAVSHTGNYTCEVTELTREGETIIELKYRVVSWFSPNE

Row | Binder | Kd [nM]
29 | B5 | 1.47
30 | B6 | 1.62
31 | B7 | 1.86
32 | B11 | 4.77
33 | B8 | 2.73
34 | B9 | 3.28
35 | B10 | 1.87

target: T2, human CD47 protein, His Tag …; assay: ELISA, CD47-His coated, competition with Human-SIRPα-mFc; remark: another data set of the same source
Experimental: The plate was let stand at 2-8° C. overnight. The wells were aspirated to remove the coating buffer and blocked with 100 μL/well of a blocking solution (PBS with 1% (w/v) bovine serum albumin (BSA, Sigma, Cat. No. B2064-100G)) by incubation at 37° C. for 1 h. The 96-well plate was washed with a washing buffer (PBS with 0.01% (w/v) Tween 20 (Sigma, Cat. No. P9416-100ML)). […] After the 96-well plate was washed with PBS washing buffer, anti-CD47 chimeric antibodies or anti-CD47 humanized antibodies (see Table 8 for chimeric antibodies, and see Table 9 for humanized antibodies) were added. 4-fold dilution was performed with PBS buffer from a starting concentration of 20 μg/mL, with 8 gradients obtained. The plate was incubated at room temperature for 1.5 h. […] After the 96-well plate was washed with PBS buffer, 100 μL/well of a substrate solution TMB (TIANGEN, Cat. No. PA107-01) was added, and the plate was incubated at room temperature for color development for 10 min. 100 μL/well of 1 M H₂SO₄ was added to stop the reaction. Colorimetric signals were generated and read at 450 nm using a multifunctional microplate reader (manufacturer: PerkinElmer; model: EnVision). Data were analyzed using GraphPad Prism5, and EC₅₀ was calculated.

Row | Binder | IC50 [µg/mL]
36 | B2 | 0.444
37 | B3 | 7.91
38 | B4 | 0.946

target: T5, CD47 on HL60 cells (UniProt Q08722 19-323, limits assumed); assay: cell-based or functional assay

Row | Binder | rate of phagocytosis, antibody 1 µg/mL [%] | rate of phagocytosis, antibody 10 µg/mL [%]
39 | B5 | 47 | 37.1
40 | B6 | 50.3 | 58.3
41 | B7 | 46.2 | 31.7
42 | B11 | 14.8 | 4.02
43 | B8 | 3.03 | 4.33
44 | B9 | 6.37 | 24.2
45 | B10 | 11.6 | 4.7

target: T1, CD47 on the red cell surface; assay: flow cytometry on fixed red cells, antibody 10 µg/mL; remark: another data set of the same source
Experimental: as §1

Row | Binder | MFI [MFI]
46 | B5 | 45300
47 | B6 | 41900
48 | B7 | 45600
49 | B11 | 6460
50 | B8 | 4880
51 | B9 | 5140
52 | B10 | 3870

target: T2, human CD47 protein, His Tag …; assay: ELISA, plate coated with CD47-His
Experimental: (§3) An ELISA binding assay was performed based on human CD47 protein and anti-CD47 chimeric antibodies or anti-CD47 humanized antibodies. […] The wells were aspirated, and non-specific binding sites were blocked by adding 100 L/well of a blocking solution (PBS with 1% (w/v) bovine serum albumin (BSA, Sigma, Cat. No. B2064-100G)) and incubating the plate at 37° C. for 1 h. After the 96-well plate was washed three times with a washing buffer (PBS with 0.01% (w/v) Tween 20 (Sigma, Cat. No. P9416-100ML)), 100 μL/well of 1:4 serial dilutions (from 30 g/mL) of anti-CD47 antibodies (see Table 3 for chimeric antibodies, and see Table 4 for humanized antibodies) in blocking solution were added, and the plate was incubated at room temperature for 2 h. […] After the 96-well plate was washed, 100 μL/well of a substrate solution TMB (TIANGEN, Cat. No. PA107-01) was added, and the 96-well plate was incubated at room temperature for 10 min. 100 μL/well of a stop solution (1 M H₂SO₄) was added to stop the reaction. Colorimetric signals were generated and read at 450 nm using a multifunctional microplate reader (manufacturer: PerkinElmer; model: EnVision). Data were analyzed using GraphPad Prism5, and EC₅₀ was calculated.

Row | Binder | EC50 [µg/mL]
53 | B5 | 0.166
54 | B6 | 0.115
55 | B7 | 0.181
56 | B11 | 0.306
57 | B8 | 0.138
58 | B9 | 0.14
59 | B10 | 0.241

target: T5, CD47 on HL60 cells; assay: cell-based or functional assay; remark: another data set of the same source

Row | Binder | rate of phagocytosis, antibody 1 µg/mL [%] | rate of phagocytosis, antibody 10 µg/mL [%]
60 | B1 | 7.3 | 4.1
61 | B2 | 54.2 | 44.7
62 | B3 | 65.7 | 59.8
63 | B4 | 11.5 | 28.8

target: T1, CD47 on the red cell surface; assay: flow cytometry on fixed red cells, antibody 1 µg/mL
Experimental: as §1

Row | Binder | MFI [MFI]
64 | B1 | 656
65 | B2 | 26500
66 | B3 | 36100
67 | B4 | 1310

target: T3, human CD47 protein on CHO-K1-CD47 cells; assay: cell binding, CHO-K1-CD47 cells, high content imaging; remark: another data set of the same source
Experimental: as §2

Row | Binder | EC50 [µg/mL]
68 | B5 | 1.2
69 | B6 | 1.16
70 | B7 | 1.26
71 | B11 | 3.87
72 | B8 | 18.8
73 | B9 | 5.88
74 | B10 | 40.5

target: T2, human CD47 protein, His Tag …; assay: Biacore SPR, 25 C, antibody captured on CM5 chip; remark: another data set of the same source

Row | Binder | Kd [nM]
75 | B1 | 7.48
76 | B2 | 2.35
77 | B3 | 0.767
78 | B4 | 9.06

target: T4, cynomolgus/rhesus macaque CD47 protein, …; assay: Biacore SPR, 25 C, antibody captured on CM5 chip; remark: another data set of the same source

Row | Binder | Kd [nM]
79 | B1 | 1.2
80 | B2 | 1.58
81 | B3 | 1.04
82 | B4 | 2.92

target: T6, CD47 on Jurkat cells (UniProt Q08722 19-323, limits assumed); assay: flow cytometry on Jurkat cells, competition with Human-SIRPα-mFc
T6 construct: whole, on cells; Jurkat is a human T cell line
Experimental: The plate was incubated at room temperature for 1 h. After the plate was washed twice with PBS buffer, 100 μL of anti-CD47 chimeric antibodies (Table 7) was added to each well. 4-fold dilution was performed with PBS buffer from a starting concentration of 20 μg/mL, with 8 gradients obtained. The plate was incubated at room temperature for 1-2 h. […] The plate was incubated at room temperature for 1 h and washed 3 times with PBS buffer.

Row | Binder | IC50 [µg/mL]
83 | B2 | 1.28
84 | B3 | 0.358
85 | B4 | 4.86

target: T2, human CD47 protein, His Tag …; assay: ELISA, plate coated with CD47-His; remark: another data set of the same source
Experimental: as §3

Row | Binder | EC50 [µg/mL]
86 | B1 | 0.349
87 | B2 | 0.273
88 | B3 | 1.11
89 | B4 | 0.0879

target: T1, CD47 on the red cell surface; assay: flow cytometry on fixed red cells, antibody 1 µg/mL; remark: another data set of the same source
Experimental: as §1

Row | Binder | MFI [MFI]
90 | B5 | 5100
91 | B6 | 5980
92 | B7 | 4810
93 | B11 | 945
94 | B8 | 894
95 | B9 | 945
96 | B10 | 848
